# Assay results taken from patent US10975167B2, “Method to reduce pulmonary arterial hypertension by administering inhibitors of nicotinamide phosphoribotransferase” (Arizona Board of Regents on Behalf of the University of …, priority 2017, dated 2021).
# B1: rNAMPT: Recombinant NAMPT protein (CY-E1251) from MBL (protein)
# chain: MNPAAEAEFNILLATDSYKVTHYKQYPPNTSKVYSYFECREKKTENSKLRKVKYEETVFYGLQYILNKYLKGKVVTKEKIQEAKDVYKEHFQDDVFNEKGWNYILEKYDGHLPIEIKAVPEGFVIPRGNVLFTVENTDPECYWLTNWIETILVQSWYPITVATNSREQKKILAKYLLETSGNLDGLEYKLHDFGYRGVSSQETAGIGASAHLVNFKGTDTVAGLALIKKYYGTKDPVPGYSVPAAEHSTITAWGKDHEKDAFEHIVTQFSSVPVSVVSDSYDIYNACEKIWGEDLRHLIVSRSTQAPLIIRPDSGNPLDTVLKVLEILGKKFPVTENSKGYKLLPPYLRVIQGDGVDINTLQEIVEGMKQKMWSIENIAFGSGGGLLQKLTRDLLNCSFKCSYVVTNGLGINVFKDPVADPNKRSKKGRLSLHRTPAGNFVTLEEGKGDLEEYGQDLLHTVFKNGKVTKSYSFDEIRKNAQLNIELEAAHH
# How the values were obtained:
# human lung SMC = test: BrdU proliferation of human lung SMC exposed to recombinant NAMPT; type: cell-based; details: 1, 5, 20 μg/ml
# Protocol: Cell proliferation was determined using either a 5-bromo-2′-deoxyuridine (BrdU) incorporation assay or cell counting. BrdU assays (QIA58, Calbiochem, San Diego, Calif.) were performed in a 96-well format according to manufacturer's instructions, using starting cell densities of 4000 cells/well. For cell counting, cells were trypsinized and resuspended after experimental procedures; densities were counted with a TC10™ automated cell counter (Bio-Rad). FBS or PDGF was used as positive controls.
# hPASMCs [1] = test: Transwell migration and wound healing assays; type: cell-based, human; details: rhNAMPT 20 μg/ml
# Protocol: For quantitative data from transwell migration assays (ANOVA P<0.05). 50,000 cells were added into Falcon™ Cell Culture Inserts (Fisher, Cat. #08-771-12) with 8-μm pores in 1 ml of basal medium and 250 μl on the top of the transwell. Cells were then stimulated by vehicle, rhNAMPT (20 μg/ml) with or without FK866 (10 μM) for 48 hrs. Unmigrated cells were then scraped from the top of the filter and the migrated bottom layer of cells were stained by 1% aqueous Crystal Violet solution (Electron Microscopy Sciences, Cat. #RT 26088-10). The transwell bottom was gently separated by a blade and put on a glass slide for imaging.
# The migrated cells were counted and quantified. Images were taken by an Olympus BX51Fluorescence Microscope and processed by DPController Software (Oylmpus IMS).
# In wound healing assays, approximately 0.5 million human Primary Pulmonary Artery Smooth Muscle Cells (hPASMCs) were seeded to 6-well cell culture plates, a straight line was scratched using a 200-μl pipette tip after cells reached 100% confluence. Three dots were labelled beside each line. […]
# Image J software was used to measure the wound line width for all the three spots labeled in each line. Wound closure %={[width (start point)-width (end point)]/width (start point)}×100% was calculated (ANOVA P<0.05).
# human lung SMCs = test: Store-operated Ca2+ entry and STIM2/Orai2 expression in human lung SMCs; type: cell-based; details: 48 hr
# Protocol: Recombinant NAMPT protein (CY-E1251) was obtained from MBL Lifescience. Solubilized protein lysates isolated from lung tissues and cells were used to detect NAMPT, STIM2, ORAI2 and actin as previously described. Cells were lysed in a modified radioimmunoprecipitation assay (mRIPA) lysis buffer with a protease and phosphatase inhibitor cocktail (Sigma Aldrich, St. Louis, Mo.), and protein quantification and Western blot analysis were performed according to standard procedures.
# Human Primary Pulmonary Artery Smooth Muscle Cells (hPASMCs) from control and PAH patients were obtained and isolated as previously described from Lonza (CC-2581 and CC-2530) were used for cell transfection and proliferation assays.
# [Ca2+]cyt was measured in PASMC loaded with fura-2 (4 mM) in a Nikon digital fluorescent imaging system. Cells were loaded with 4 μM fura-2 acetoxymethyl ester (fura-2/AM) for 60 min at 25° C. and [Ca2+]cyt was measured using a ratiometric method at 32° C. Cyclepiazonic acid (CPA, a specific Ca2+-ATPase inhibitor) was used to induce store-operated calcium entry (SOCE).
# hPASMCs [2] = test: TUNEL apoptosis assay in hPASMCs; type: cell-based, human; details: H2O2 100 μM + rhNAMPT 20 μg/ml, 24 hrs
# Protocol: hPASMCs were cultured on a coverslip in a 6-well cell culture plate. H2O2 (100 μM, Sigma, Cat. #ab66110) was used as an apoptosis stimulus for hPASMCs.
# When cell confluence reached 95%, cells were starved for 3 hrs and stimulated by H2O2, FK866 (10 μM), H2O2+rhNAMPT (20 μg/ml) or H2O2+rhNAMPT (20 μg/ml) with FK866 (10 μM) for 24 hrs. Cell apoptosis was examined using an in situ BrdU-Red DNA fragmentation (TUNEL) kit. The cells on the coverslips were examined using a Nikon Eclipse E800 fluorescence microscope, and the images were processed by MetaMorph software (Molecular Devices, Inc.). Approximately ten images were taken from each condition, and over 500 cells were counted according to DAPI staining.
molecule,measurement,setting,value
B1,human lung SMC proliferation,human lung SMC,dose-dependently stimulating
same,human PASMC migration,hPASMCs [1],promotes
same,cyclopiazonic acid (CPA)-mediated store-operated Ca2+ entry (SOCE),human lung SMCs; 20 μg/ml,augments
same,expression of Orai2,human lung SMCs,increases
same,expression of STIM2,human lung SMCs,increases
same,hPASMC apoptosis (TUNEL positive cells),hPASMCs [2],inhibits
